Article PMC9368491

Target: β-catenin (endogenous) (UniProt P35222)
Assay: anti-Cav-1 IP, β-catenin blot
Conditions: reference: WT Cav-1, DMSO; sites Y14

Caveolin-1 (Cav-1) (from UniProt Q03135) Y14F Cav-1, DMSO
binding against the reference: weaker
